# Laboratory results: patent publication US20190321401A1 (JUNO THERAPEUTICS, published 2019)
# T1: HPV 16 E7 peptide on HLA-A*02:01 (human)
# T1 peptide: YMLDLQPET
# T2: HPV 16 E6 peptide on HLA-A*02:01 (human)
# T2 peptide: TIHDIILECV
# T3: HPV 16 E7(11-19), single-substitution variant P7C (synthetic scanning library) peptide on HLA-A*02:01 (human)
# T3 peptide: YMLDLQCET
# T4: HPV 16 E7(11-19), single-substitution variant E8D (synthetic scanning library) peptide on HLA-A*02:01 (human)
# T4 peptide: YMLDLQPDT
# T5: HPV 16 E7(11-19), single-substitution variant E8I (synthetic scanning library) peptide on HLA-A*02:01 (human)
# T5 peptide: YMLDLQPIT
# T6: HPV 16 E7(11-19), single-substitution variant L3M (synthetic scanning library) peptide on HLA-A*02:01 (human)
# T6 peptide: YMMDLQPET
# T7: HPV 16 E7(11-19), single-substitution variant Y1A (synthetic scanning library) peptide on HLA-A*02:01 (human)
# T7 peptide: AMLDLQPET
# T8: HPV 16 E7(11-19), single-substitution variant T9D (synthetic scanning library) peptide on HLA-A*02:01 (human)
# T8 peptide: YMLDLQPED
# T9: HPV 16 E7(11-19), single-substitution variant Y1L (synthetic scanning library) peptide on HLA-A*02:01 (human)
# T9 peptide: LMLDLQPET
# T10: HPV 16 E7(11-19), single-substitution variant Q6H (synthetic scanning library) peptide on HLA-A*02:01 (human)
# T10 peptide: YMLDLHPET
# T11: HPV 16 E7(11-19), single-substitution variant E8T (synthetic scanning library) peptide on HLA-A*02:01 (human)
# T11 peptide: YMLDLQPTT
# T12: HPV 16 E7(11-19), single-substitution variant T9V (synthetic scanning library) peptide on HLA-A*02:01 (human)
# T12 peptide: YMLDLQPEV
# T13: HPV 16 E7(11-19), single-substitution variant E8M (synthetic scanning library) peptide on HLA-A*02:01 (human)
# T13 peptide: YMLDLQPMT
# T14: HPV 16 E7(11-19), single-substitution variant M2Q (synthetic scanning library) peptide on HLA-A*02:01 (human)
# T14 peptide: YQLDLQPET
# T15: HPV 16 E7(11-19), single-substitution variant L5Y (synthetic scanning library) peptide on HLA-A*02:01 (human)
# T15 peptide: YMLDYQPET
# T16: HPV 16 E7(11-19), single-substitution variant T9L (synthetic scanning library) peptide on HLA-A*02:01 (human)
# T16 peptide: YMLDLQPEL
# T17: HPV 16 E7(11-19), single-substitution variant M2C (synthetic scanning library) peptide on HLA-A*02:01 (human)
# T17 peptide: YCLDLQPET
# T18: HPV 16 E7(11-19), single-substitution variant T9S (synthetic scanning library) peptide on HLA-A*02:01 (human)
# T18 peptide: YMLDLQPES
# T19: HPV 16 E7(11-19), single-substitution variant L3C (synthetic scanning library) peptide on HLA-A*02:01 (human)
# T19 peptide: YMCDLQPET
# T20: HPV 16 E7(11-19), single-substitution variant E8C (synthetic scanning library) peptide on HLA-A*02:01 (human)
# T20 peptide: YMLDLQPCT
# T21: HPV 16 E7(11-19), single-substitution variant L5C (synthetic scanning library) peptide on HLA-A*02:01 (human)
# T21 peptide: YMLDCQPET
# T22: HPV 16 E7(11-19), single-substitution variant Y1N (synthetic scanning library) peptide on HLA-A*02:01 (human)
# T22 peptide: NMLDLQPET
# T23: HPV 16 E7(11-19), single-substitution variant T9F (synthetic scanning library) peptide on HLA-A*02:01 (human)
# T23 peptide: YMLDLQPEF
# T24: HPV 16 E7(11-19), single-substitution variant T9I (synthetic scanning library) peptide on HLA-A*02:01 (human)
# T24 peptide: YMLDLQPEI
# T25: HPV 16 E7(11-19), single-substitution variant Y1C (synthetic scanning library) peptide on HLA-A*02:01 (human)
# T25 peptide: CMLDLQPET
# B1: TCR 57 (TCR, V domains shown)
# Valpha: TQLLEQSPQFLSIQEGENLTVYCNSSSVFSSLQWYRQEPGEGPVLLVTVVTGGEVKKLKRLTFQFGDARKDSSLHITAAQPGDTGLYLCAGARNFNKFYFGSGTKLNVKP
# Vbeta: GAVVSQHPSWVICKSGTSVKIECRSLDFQATTMFWYRQFPKQSLMLMATSNEGSKATYEQGVEKDKFLINHASLTLSTLTVTSAHPEDSSFYICSARSWRGGLEQFFGPGTRLTVL
# Legend:
# [1] = molecular target: T1, HPV 16 E7 peptide on HLA-A*02:01; assay: multimer staining
# [2] = molecular target: T2, HPV 16 E6 peptide on HLA-A*02:01; assay: multimer staining
# [3] = molecular target: T3, HPV 16 E7(11-19), single-substitution …; assay: activation reporter or marker
# [4] = molecular target: T4, HPV 16 E7(11-19), single-substitution …; assay: activation reporter or marker
# [5] = molecular target: T5, HPV 16 E7(11-19), single-substitution …; assay: activation reporter or marker
# [6] = molecular target: T6, HPV 16 E7(11-19), single-substitution …; assay: activation reporter or marker
# [7] = molecular target: T7, HPV 16 E7(11-19), single-substitution …; assay: activation reporter or marker
# [8] = molecular target: T8, HPV 16 E7(11-19), single-substitution …; assay: activation reporter or marker
# [9] = molecular target: T9, HPV 16 E7(11-19), single-substitution …; assay: activation reporter or marker
# [10] = molecular target: T10, HPV 16 E7(11-19), single-substitution …; assay: activation reporter or marker
# [11] = molecular target: T11, HPV 16 E7(11-19), single-substitution …; assay: activation reporter or marker
# [12] = molecular target: T12, HPV 16 E7(11-19), single-substitution …; assay: activation reporter or marker
# [13] = molecular target: T13, HPV 16 E7(11-19), single-substitution …; assay: activation reporter or marker
# [14] = molecular target: T14, HPV 16 E7(11-19), single-substitution …; assay: activation reporter or marker
# [15] = molecular target: T15, HPV 16 E7(11-19), single-substitution …; assay: activation reporter or marker
# [16] = molecular target: T16, HPV 16 E7(11-19), single-substitution …; assay: activation reporter or marker
# [17] = molecular target: T17, HPV 16 E7(11-19), single-substitution …; assay: activation reporter or marker
# [18] = molecular target: T18, HPV 16 E7(11-19), single-substitution …; assay: activation reporter or marker
# [19] = molecular target: T19, HPV 16 E7(11-19), single-substitution …; assay: activation reporter or marker
# [20] = molecular target: T20, HPV 16 E7(11-19), single-substitution …; assay: activation reporter or marker
# [21] = molecular target: T21, HPV 16 E7(11-19), single-substitution …; assay: activation reporter or marker
# [22] = molecular target: T22, HPV 16 E7(11-19), single-substitution …; assay: activation reporter or marker
# [23] = molecular target: T23, HPV 16 E7(11-19), single-substitution …; assay: activation reporter or marker
# [24] = molecular target: T24, HPV 16 E7(11-19), single-substitution …; assay: activation reporter or marker
# [25] = molecular target: T25, HPV 16 E7(11-19), single-substitution …; assay: activation reporter or marker
binder,measurement,setting,value
B1,binding result,[1],recognises
same,binding result,[2],no recognition
same,binding result,[3],recognises
same,binding result,[4],recognises
same,binding result,[5],recognises
same,binding result,[6],recognises
same,binding result,[7],recognises
same,binding result,[8],recognises
same,binding result,[9],recognises
same,binding result,[10],recognises
same,binding result,[11],recognises
same,binding result,[12],recognises
same,binding result,[13],recognises
same,binding result,[14],recognises
same,binding result,[15],recognises
same,binding result,[16],recognises
same,binding result,[17],recognises
same,binding result,[18],recognises
same,binding result,[19],recognises
same,binding result,[20],recognises
same,binding result,[21],recognises
same,binding result,[22],recognises
same,binding result,[23],recognises
same,binding result,[24],recognises
same,binding result,[25],recognises
